Reference: US20190016816A1 (APTEVO RESEARCH AND DEVELOPMENT, published 2019)
Blank lines part the entries; values can stand above or below the binder they belong to.

Assays:
[1] = biological target: T1, FcγRIIb (CD32b) (UniProt P31994 43-310, limits assumed); assay: flow cytometry, CHO cells stably expressing CD32b, fluorescent anti-human IgG secondary, MFI (mean)
T1 construct: whole, on cells
T1 sequence (looked up): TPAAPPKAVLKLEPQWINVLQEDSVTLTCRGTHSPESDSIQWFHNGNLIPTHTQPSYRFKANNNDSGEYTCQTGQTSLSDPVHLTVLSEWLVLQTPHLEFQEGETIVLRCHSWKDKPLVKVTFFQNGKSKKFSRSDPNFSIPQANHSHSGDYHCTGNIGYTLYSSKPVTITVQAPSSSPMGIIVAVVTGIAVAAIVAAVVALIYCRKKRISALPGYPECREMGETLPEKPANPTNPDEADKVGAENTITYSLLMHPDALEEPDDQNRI
Description: (§1) ALG.APV-210 contains mutations introduced to prevent interaction with Fcγ receptors (FcγR) that could lead to FcγR-mediated T-cell activation or ADCC, ADCP, CDC etc. Binding of ALG.APV-210 was therefore tested on CHO cell transfectants stably expressing the following FcγR: FcγRI (CD64), FcγRIIa (CD32a His131), FcγRIIb (CD32b), FcγRIIIa (CD16a Val158 and CD16a Phe158), and FcγRIIIb (CD16b). Untransfected CHO cells were used as negative control. A control human IgG1 molecule was used as a positive control. Different concentrations of ALG.APV-210 or control IgG1 were incubated with the FcγR-expressing cell lines, washed, and labeled with a secondary anti-human IgG reagent. Binding of ALG.APV-210 and the control IgG1 was detected by flow cytometry.

[2] = biological target: T2, FcγRIIIa (CD16a Phe158) (UniProt P08637 17-254, limits assumed); assay: flow cytometry, CHO cells stably expressing CD16a Phe158, fluorescent anti-human IgG secondary, MFI (mean)
T2 construct: whole, on cells; allotype Phe158 as printed
Description: as §1

[3] = biological target: T3, human 5T4 on cells (human, UniProt Q13641 32-420); assay: flow cytometry, CT26-hu5T4^int cells, streptavidin-PE, normalized MFI of 2 pooled experiments
T3 construct: also called TPBG; hu5T4
T3 sequence: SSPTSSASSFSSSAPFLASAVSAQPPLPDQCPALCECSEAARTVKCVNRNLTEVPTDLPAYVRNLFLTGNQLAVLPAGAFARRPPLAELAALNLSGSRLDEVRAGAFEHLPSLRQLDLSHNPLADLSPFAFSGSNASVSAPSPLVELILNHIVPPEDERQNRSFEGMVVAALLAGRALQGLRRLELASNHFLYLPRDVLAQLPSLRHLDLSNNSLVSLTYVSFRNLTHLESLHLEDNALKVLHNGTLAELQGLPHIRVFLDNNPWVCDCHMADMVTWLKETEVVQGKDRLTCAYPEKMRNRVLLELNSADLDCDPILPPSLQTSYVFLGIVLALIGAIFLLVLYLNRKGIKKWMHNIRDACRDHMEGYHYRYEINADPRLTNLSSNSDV
Method: Prior to the FACS staining, all cell lines were characterized for their 5T4 expression levels using a receptor density kit (Quantum Simply Cellular, anti-human IgG, Bangs Laboratories, Inc). Adherent cell lines were cultured according to their supplier's instructions and were harvested from their cell culture flasks using Trypsin/EDTA, counted in R10 medium in a Burker chamber, and diluted in FACS buffer (PBS+0.5% BSA, 0.05% NaN₃) to a concentration of 4×10⁶ cells/mL. 50 μL (0.20×10⁶) of cell solution was added to a 96-well FACS staining plate (Falcon #351190). Cells were incubated for 20 min in 4° C. with 50 μL of the biotinylated ALG.APV-210 (2× final concentration). The antibodies were added in a serial dilution starting at 20 μg/mL titrating down in a 12 step ½ dilution down to 0.010 μg/mL. Following 2× washing with FACS buffer, cells were incubated for 30 min in 4° C. with 100 μL of a secondary antibody (streptavidin-PE, BD #554061, diluted 1/500). […] Cells were analysed for ALG.APV-210 binding using flow cytometry (FACSVerse) by gating on single cells. MFI values (secondary antibody only subtracted) from 1 out of 2 independent experiments, as well as normalized data and EC₅₀-values of pooled data from 2 experiments were determined and plotted using GraphPad Prism 7, non-linear regression log (agonist) vs. normalized response—variable slope.

[4] = biological target: T4, cynomolgus CD137 on cells (cynomolgus macaque, UniProt A9YYE7 24-254); assay: flow cytometry, CHO-K1 cells expressing cynomolgus CD137, PE anti-human IgG Fc secondary, MFI (median)
T4 construct: whole, on cells; also called CHO-K1/cynomolgus CD137 cell line; cynomolgus monkey CD137 on CD3-stimulated primary CD8 T cells
Method: Binding studies on CHO-K1 cells lines expressing CD137 were performed by standard flow cytometry-based staining procedures. CHO-K1 cells (generated by Alligator) were transfected with human or cynomolgus macaque CD137. A typical experiment would label approximately 100,000 cells per well, in 96-well plates, with a range of 100 nM to 0.05 nM binding molecule in 50 μL of saline buffer with 2% BSA and 2 mM EDTA, for 30 min on ice, followed by washes and incubation with PE-labeled secondary antibody, goat anti-human IgG Fcγ ([…]), for 20 minutes on ice. Signal from bound molecules was detected using a LSR-II™ or a Symphony A3 flow cytometer (BD Biosciences) and analyzed by FlowJo flow cytometry analysis software. Median fluorescence intensity (MFI-median) of bound molecules on live cells was determined after exclusion of doublets cells. Nonlinear regression analysis to determine EC₅₀ values was performed in GraphPad Prism 6® graphing and statistics software.

T2 sequence (P08637 17-254 limits assumed): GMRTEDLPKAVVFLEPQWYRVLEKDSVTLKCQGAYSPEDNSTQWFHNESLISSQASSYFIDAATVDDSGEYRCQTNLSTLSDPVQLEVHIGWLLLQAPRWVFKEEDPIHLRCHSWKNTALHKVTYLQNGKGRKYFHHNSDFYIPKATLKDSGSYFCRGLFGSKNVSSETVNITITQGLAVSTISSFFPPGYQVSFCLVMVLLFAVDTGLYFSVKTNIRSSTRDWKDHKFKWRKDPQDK
T4 sequence (A9YYE7 entry or part of it): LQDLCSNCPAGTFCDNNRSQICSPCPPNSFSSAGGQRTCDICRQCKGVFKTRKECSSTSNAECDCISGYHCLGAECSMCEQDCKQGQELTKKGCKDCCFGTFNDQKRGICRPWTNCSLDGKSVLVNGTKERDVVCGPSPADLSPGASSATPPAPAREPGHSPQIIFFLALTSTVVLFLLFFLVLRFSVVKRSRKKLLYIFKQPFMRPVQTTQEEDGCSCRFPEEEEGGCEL

binding result [1]: no binding (tested: 1000 nM) | binding result [2]: no binding (tested: 1000 nM)
B1: ALG.APV-210 (bispecific antibody)
chain: EVQLLESGGGLVQPGGSLRLSCAASGFTFSHGSMYWVRQAPGKGLEWVSSISSGSGSTYYADSVKGRFTISHDNSKNTLYLQMNSLRAEDTAVYYCARSSYYGSYYSIDYWGQGTLVTVSSGGGGSGGGGSGGGGSGGGGSDIQMTQSPSSLSASVGDRVTITCRASQSISSYLNWYQQKPGKAPKLLIYAASSLQSGVPSRFSGSGSGTDFTLTISSLQPEDFATYYCQQYYDNLPTFGQGTKLEIKEPKSSDKTHTCPPCPAPEAAGAPSVFLFPPKPKDTLMISRTPEVTCVVVDVSHEDPEVKFNWYVDGVEVHNAKTKPREEQYNSTYRVVSVLTVLHQDWLNGKEYKCAVSNKALPAPIEKTISKAKGQPREPQVYTLPPSRDELTKNQVSLTCLVKGFYPSDIAVEWESNGQPENNYKTTPPVLDSDGSFFLYSKLTVDKSRWQQGNVFSCSVMHEALHNHYTQKSLSLSPGSGGGGSGGGGSGGGGSPSEVQLLESGGGLVQPGGSLRLSCAASGFTFSSYAMSWVRQAPGKCLEWVSAISGSGGSTYYADSVKGRFTISRDNSKNTLYLQMNSLRAEDTAVYYCARYYGGYYSAWMDYWGQGTLVTVSSGGGGSGGGGSGGGGSGGGGSDIQMTQSPSSLSASVGDRVTITCRASQSISSFLNWYQQKPGKAPKLLIYAASSLQSGVPSRFSGSGSGTDFTLTISSLQPEDSATYYCQQTYGYLHTFGCGTKLEIKR
notes: Optimized ADAPTIR scFv-Fc-scFv homodimer with stabilizing disulfide in the 1210 scFv; also called 5T4-CD137 bispecific antibody

B2: biotinylated ALG.APV-210 (bispecific antibody)
chain: EVQLLESGGGLVQPGGSLRLSCAASGFTFSHGSMYWVRQAPGKGLEWVSSISSGSGSTYYADSVKGRFTISHDNSKNTLYLQMNSLRAEDTAVYYCARSSYYGSYYSIDYWGQGTLVTVSSGGGGSGGGGSGGGGSGGGGSDIQMTQSPSSLSASVGDRVTITCRASQSISSYLNWYQQKPGKAPKLLIYAASSLQSGVPSRFSGSGSGTDFTLTISSLQPEDFATYYCQQYYDNLPTFGQGTKLEIKEPKSSDKTHTCPPCPAPEAAGAPSVFLFPPKPKDTLMISRTPEVTCVVVDVSHEDPEVKFNWYVDGVEVHNAKTKPREEQYNSTYRVVSVLTVLHQDWLNGKEYKCAVSNKALPAPIEKTISKAKGQPREPQVYTLPPSRDELTKNQVSLTCLVKGFYPSDIAVEWESNGQPENNYKTTPPVLDSDGSFFLYSKLTVDKSRWQQGNVFSCSVMHEALHNHYTQKSLSLSPGSGGGGSGGGGSGGGGSPSEVQLLESGGGLVQPGGSLRLSCAASGFTFSSYAMSWVRQAPGKCLEWVSAISGSGGSTYYADSVKGRFTISRDNSKNTLYLQMNSLRAEDTAVYYCARYYGGYYSAWMDYWGQGTLVTVSSGGGGSGGGGSGGGGSGGGGSDIQMTQSPSSLSASVGDRVTITCRASQSISSFLNWYQQKPGKAPKLLIYAASSLQSGVPSRFSGSGSGTDFTLTISSLQPEDSATYYCQQTYGYLHTFGCGTKLEIKR
notes: also called ALG.APV-210 (biotinylated for FACS detection)
EC50 [3]: 12 nM

EC50 [4]: 1.7 nM
B3: ALG.APV-187 (bispecific antibody)
chain: EVQLLESGGGLVQPGGSLRLSCAASGFTFSHGSMYWVRQAPGKGLEWVSSISSGSGSTYYADSVKGRFTISHDNSKNTLYLQMNSLRAEDTAVYYCARSSYYGSYYSIDYWGQGTLVTVSSGGGGSGGGGSGGGGSGGGGSDIQMTQSPSSLSASVGDRVTITCRASQSISSYLNWYQQKPGKAPKLLIYAASSLQSGVPSRFSGSGSGTDFTLTISSLQPEDFATYYCQQYYDNLPTFGQGTKLEIKSSEPKSSDKTHTCPPCPAPEAAGAPSVFLFPPKPKDTLMISRTPEVTCVVVDVSHEDPEVKFNWYVDGVEVHNAKTKPREEQYNSTYRVVSVLTVLHQDWLNGKEYKCAVSNKALPAPIEKTISKAKGQPREPQVYTLPPSRDELTKNQVSLTCLVKGFYPSDIAVEWESNGQPENNYKTTPPVLDSDGSFFLYSKLTVDKSRWQQGNVFSCSVMHEALHNHYTQKSLSLSPGSGGGGSGGGGSGGGGSPSEVQLLESGGGLVQPGGSLRLSCAASGFTFSSYAMSWVRQAPGKCLEWVSAISGSGGSTYYADSVKGRFTISRDNSKNTLYLQMNSLRAEDTAVYYCARYYGGYYSAWMDYWGQGTLVTVSSGGGGSGGGGSGGGGSGGGGSDIQMTQSPSSLSASVGDRVTITCRASQSISSFLNWYQQKPGKAPKLLIYAASSLQSGVPSRFSGSGSGTDFTLTISSLQPEDSATYYCQQTYGYLHTFGCGTKLEIKR
notes: Optimized ADAPTIR scFv-Fc-scFv homodimer with stabilizing disulfide in the 1210 scFv
